Source: patent publication US6808893

Key:
[1] = molecular target: EAAT4, full-length glutamate transporter (rat) (UniProt O35921); assay: cell-based or functional assay
[2] = molecular target: GTRAP4-48 (glutamate transporter 4 associated protein), full-length (rat) (UniProt Q9ES67); assay: cell-based or functional assay
GTRAP4-48 (glutamate transporter 4 associated protein), full-length (rat), sequence (Q9ES67 whole entry): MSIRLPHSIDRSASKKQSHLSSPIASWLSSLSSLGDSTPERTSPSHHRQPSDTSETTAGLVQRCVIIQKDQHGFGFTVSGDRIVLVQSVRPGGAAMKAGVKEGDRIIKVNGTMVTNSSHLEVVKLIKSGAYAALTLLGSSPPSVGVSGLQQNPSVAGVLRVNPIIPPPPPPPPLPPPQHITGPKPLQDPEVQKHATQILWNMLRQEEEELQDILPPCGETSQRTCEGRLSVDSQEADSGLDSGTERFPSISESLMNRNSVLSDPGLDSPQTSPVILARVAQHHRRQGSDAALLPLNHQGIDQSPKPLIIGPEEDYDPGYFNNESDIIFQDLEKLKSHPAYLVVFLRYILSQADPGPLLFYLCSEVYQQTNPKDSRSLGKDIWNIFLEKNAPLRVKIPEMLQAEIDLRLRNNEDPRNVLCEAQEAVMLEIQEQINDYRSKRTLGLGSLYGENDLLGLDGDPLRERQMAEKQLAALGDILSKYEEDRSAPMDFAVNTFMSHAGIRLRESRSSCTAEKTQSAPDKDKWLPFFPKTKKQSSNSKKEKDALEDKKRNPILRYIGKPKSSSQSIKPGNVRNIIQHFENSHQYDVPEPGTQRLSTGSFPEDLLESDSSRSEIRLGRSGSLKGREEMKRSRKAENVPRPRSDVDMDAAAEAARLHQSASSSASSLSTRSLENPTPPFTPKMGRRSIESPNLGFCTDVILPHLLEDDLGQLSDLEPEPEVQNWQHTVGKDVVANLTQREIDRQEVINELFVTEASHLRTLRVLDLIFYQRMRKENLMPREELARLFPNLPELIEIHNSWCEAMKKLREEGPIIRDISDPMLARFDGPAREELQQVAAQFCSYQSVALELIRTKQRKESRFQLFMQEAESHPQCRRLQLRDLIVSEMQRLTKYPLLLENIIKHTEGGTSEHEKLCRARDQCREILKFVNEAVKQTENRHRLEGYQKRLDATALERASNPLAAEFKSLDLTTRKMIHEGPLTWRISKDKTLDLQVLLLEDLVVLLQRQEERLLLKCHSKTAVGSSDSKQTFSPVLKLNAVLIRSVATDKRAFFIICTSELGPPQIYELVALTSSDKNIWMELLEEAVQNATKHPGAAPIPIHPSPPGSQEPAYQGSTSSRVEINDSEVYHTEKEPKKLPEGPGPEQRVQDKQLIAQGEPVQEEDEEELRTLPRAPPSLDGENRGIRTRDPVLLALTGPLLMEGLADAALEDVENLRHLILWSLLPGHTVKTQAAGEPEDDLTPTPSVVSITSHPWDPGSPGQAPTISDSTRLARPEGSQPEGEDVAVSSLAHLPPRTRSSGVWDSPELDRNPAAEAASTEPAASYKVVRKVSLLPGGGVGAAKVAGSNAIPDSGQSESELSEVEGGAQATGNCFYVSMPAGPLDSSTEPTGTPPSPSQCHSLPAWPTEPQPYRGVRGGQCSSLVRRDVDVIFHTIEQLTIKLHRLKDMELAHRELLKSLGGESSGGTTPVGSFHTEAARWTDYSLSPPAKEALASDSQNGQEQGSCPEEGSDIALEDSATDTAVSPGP

EAAT4, full-length glutamate transporter (rat), sequence (O35921 whole entry): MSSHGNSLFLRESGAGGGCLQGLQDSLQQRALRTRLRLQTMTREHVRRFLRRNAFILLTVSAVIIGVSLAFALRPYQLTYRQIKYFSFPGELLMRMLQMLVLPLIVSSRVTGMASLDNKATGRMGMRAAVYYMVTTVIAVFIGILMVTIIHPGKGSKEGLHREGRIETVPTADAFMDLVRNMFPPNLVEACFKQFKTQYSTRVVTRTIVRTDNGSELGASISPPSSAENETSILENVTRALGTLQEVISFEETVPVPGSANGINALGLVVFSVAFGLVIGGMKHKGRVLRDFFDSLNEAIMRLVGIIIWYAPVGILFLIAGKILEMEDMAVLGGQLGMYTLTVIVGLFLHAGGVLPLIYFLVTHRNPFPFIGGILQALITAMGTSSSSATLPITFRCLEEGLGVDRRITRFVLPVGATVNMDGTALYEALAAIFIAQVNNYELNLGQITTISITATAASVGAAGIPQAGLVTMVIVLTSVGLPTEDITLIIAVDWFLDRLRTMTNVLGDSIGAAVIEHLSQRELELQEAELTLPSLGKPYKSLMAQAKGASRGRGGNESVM

| Km of Na+-dependent L-[3H]-glutamate uptake with GTRAP41 [1] | Na+-dependent glutamate transport in HEK-rEAAT4 cells [1] | Vmax of Na+-dependent L-[3H]-glutamate uptake with GTRAP41 [1] | GTRAP4-48 mediated increase of EAAT4 uptake activity in HEK-rEAAT4 cells [2] | Substance |
| --- | --- | --- | --- | --- |
| 11 µM | 2 fold | 605 pmol/mg/min | – | GTRAP4-41 (glutamate transporter 4 associated protein), full-length, Q9QWN8 2-2388 |
| – | – | – | 25% | myc-tagged construct encoding the last 77 amino acids of EAAT4 (from UniProt O35921 485-561) |
